Measured values as given in patent publication US20090041784A1 (Amgen, published 2009).
Read-outs that look alike come from different tables or passages of the source.

T1: cynomolgus glucagon receptor (cynomolgus (Macaca fascicularis), UniProt P47871 26-477 (human entry))
T1 chain: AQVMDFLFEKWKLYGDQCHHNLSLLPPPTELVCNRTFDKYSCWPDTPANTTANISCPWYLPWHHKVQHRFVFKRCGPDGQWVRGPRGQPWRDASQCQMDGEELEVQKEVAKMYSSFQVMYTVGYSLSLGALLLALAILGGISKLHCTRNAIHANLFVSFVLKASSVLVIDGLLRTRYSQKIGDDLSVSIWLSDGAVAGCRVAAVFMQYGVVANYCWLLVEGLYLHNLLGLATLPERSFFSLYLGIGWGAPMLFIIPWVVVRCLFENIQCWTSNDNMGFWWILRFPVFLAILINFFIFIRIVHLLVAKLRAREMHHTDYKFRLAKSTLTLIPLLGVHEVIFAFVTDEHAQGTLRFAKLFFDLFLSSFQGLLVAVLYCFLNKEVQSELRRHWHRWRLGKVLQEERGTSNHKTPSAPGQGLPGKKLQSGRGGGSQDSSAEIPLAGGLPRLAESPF


Tests used:
human glucagon receptor [1] = target: T2, human glucagon receptor (human, UniProt P47871 26-477); assay: cell-based or functional assay
[2] = target: T3, chimera-15 (amino acids 80-119 from human GCGR, remainder from human GLP-1 receptor) (human, UniProt P43220 24-83; P43220 125-463); assay: FMAT on cells expressing the chimeric receptor
T3 construct: Expressed on cells; not shown: in-frame C-terminal fluorescent protein, not identified

[3] = target: T4, chimera-10 (amino acids 80-142 from human GCGR, remainder from human GLP-1 receptor) (human, UniProt P43220 24-83; P43220 146-463); assay: FMAT on cells expressing the chimeric receptor
T4 construct: Expressed on cells; not shown: in-frame C-terminal fluorescent protein, not identified

[4] = target: T5, chimera-8 (amino acids 80-477 from human GCGR, remainder from human GLP-1 receptor) (human, UniProt P43220 24-83); assay: FMAT on cells expressing the chimeric receptor
T5 construct: Expressed on cells; not shown: in-frame C-terminal fluorescent protein, not identified

mouse glucagon receptor [5] = target: T6, mouse glucagon receptor (mouse (Mus musculus), UniProt Q61606 27-485); assay: cell-based or functional assay
[6] = target: T1, cynomolgus glucagon receptor; assay: cell-based or functional assay
human glucagon receptor [7] = target: T2, human glucagon receptor; assay: cell-based or functional assay; remark: listed apart in the source
rat glucagon receptor [8] = target: T7, rat glucagon receptor (rat (Rattus norvegicus), UniProt P30082 27-485); assay: cell-based or functional assay
mouse glucagon receptor [9] = target: T6, mouse glucagon receptor; assay: Schild analysis of glucagon dose-response curves (cAMP HTRF) on CHO K1 cells expressing the receptor
[10] = target: T1, cynomolgus glucagon receptor; assay: as above
human glucagon receptor [11] = target: T2, human glucagon receptor; assay: as above
rat glucagon receptor [12] = target: T7, rat glucagon receptor; assay: as above

Binder | IC50 of inhibition of glucagon-induced cAMP production (HTRF, CHO K1 cells expressing the receptor) (human glucagon receptor [1]) | binding result [2] | binding result [3] | binding result [4] | IC50 of inhibition of glucagon-induced cAMP production (HTRF, CHO K1 cells expressing the receptor) (mouse glucagon receptor [5]) | IC50 of inhibition of glucagon-induced cAMP production (HTRF, CHO K1 cells expressing the receptor) [6] | IC50 of inhibition of glucagon-induced cAMP production (HTRF, CHO K1 cells expressing the receptor) (human glucagon receptor [7]) | IC50 of inhibition of glucagon-induced cAMP production (HTRF, CHO K1 cells expressing the receptor) (rat glucagon receptor [8]) | Kb (dissociation constant of antibody binding by Schild analysis) (mouse glucagon receptor [9]) | Kb (dissociation constant of antibody binding by Schild analysis) [10] | Kb (dissociation constant of antibody binding by Schild analysis) (human glucagon receptor [11]) | Kb (dissociation constant of antibody binding by Schild analysis) (rat glucagon receptor [12])
antibody A-21 (antibody, V domains shown, Human antibody from XenoMouse hybridoma; also called L21H21) VH: EVRLVESGGDLVQPGGSLRLSCAASGFTFSSYAMNWVRQAPGKGLEWISYIGSSSSAIYYGDSVKGRFTISRDNAKNSLYLQMNSLRDEDTAVYYCARYRSGWSPLFDFWGQGSLVTVSS VL: DIQMTQSPSSVSASVGDRVTITCRASQGISSWLAWYQQKPGKAPKLLIYAASSLQSGVPSRFSGSGSGTDFTLTISSLQPEDFATYYCQQANSFPLTFGGGTKVEIK | 47.2 nM | no binding | no binding | no binding | – | – | – | – | – | – | – | –
antibody A-3 (antibody, V domains shown, Human antibody from XenoMouse hybridoma; also called L3H3; antibody 3) VH: QVQLVESGGGVVQPGRSLRLSCAASGFTFSSYGMHWVRQAPGKGLEWVAVMWYDGSNKDYVDSVKGRFTISRDNSKNTLYLQMNRLRAEDTAVYYCAREKDHYDILTGYNYYYGLDVWGQGTTVTVSS VL: DIQMTQSPSSLSASVGDRVTITCRASQGIRNDLGWYQQKPGKAPKRLIYAASSLQSGVPSRFSGSGSGTEFTLTISSVQPEDFVTYYCLQHNSNPLTFGGGTKVEIK | – | – | – | – | 4.9 nM | 22.5 nM | 9.1 nM | 13.5 nM | 0.5 nM | 5 nM | 1.6 nM | 3.2 nM
antibody A-4 (antibody, V domains shown, Human antibody from XenoMouse hybridoma (IgG2 or IgG4 strains), purified from conditioned medium; also called L4H4; antibody 4) VH: QVQLVESGGGVVQPGRSLRLSCAASGFTFSSYGMHWVRQAPGKGLEWVAVMWYDGSNKDYVDSVKGRFTISRDNSKNTLYLQMNSLRAEDTAVYYCAREKDHYDILTGYNYYYGLDVWGQGTTVTVSS VL: DIQMTQSPSSLSASVGDRVTITCRASQGIRNDLGWYQQKPGKAPKRLIYAASSLQSGVPSRFSGSGSGTEFTLTISSLQPEDFATYYCLQHNSNPLTFGGGTKVEIK | – | – | – | – | 10.1 nM | 52.1 nM | 18.1 nM | 17.2 nM | 0.88 nM | 5.7 nM | 1.76 nM | –
